Results on 1 molecule are retold here after article PMC10823224 (2024).

The target in this assay is fusion-competent ectodomain of influenza virus A/PR8/34 (Ecto-PR8/34) hemagglutinin (influenza virus A/PR/8/34, UniProt P03452 18-528). In words: BLI.

As a reminder, the Kd is the equilibrium constant for the complex coming apart. A low value points to higher affinity.

Chain of fusion-competent ectodomain of influenza virus A/PR8/34 (Ecto-PR8/34) hemagglutinin (P03452 18-528): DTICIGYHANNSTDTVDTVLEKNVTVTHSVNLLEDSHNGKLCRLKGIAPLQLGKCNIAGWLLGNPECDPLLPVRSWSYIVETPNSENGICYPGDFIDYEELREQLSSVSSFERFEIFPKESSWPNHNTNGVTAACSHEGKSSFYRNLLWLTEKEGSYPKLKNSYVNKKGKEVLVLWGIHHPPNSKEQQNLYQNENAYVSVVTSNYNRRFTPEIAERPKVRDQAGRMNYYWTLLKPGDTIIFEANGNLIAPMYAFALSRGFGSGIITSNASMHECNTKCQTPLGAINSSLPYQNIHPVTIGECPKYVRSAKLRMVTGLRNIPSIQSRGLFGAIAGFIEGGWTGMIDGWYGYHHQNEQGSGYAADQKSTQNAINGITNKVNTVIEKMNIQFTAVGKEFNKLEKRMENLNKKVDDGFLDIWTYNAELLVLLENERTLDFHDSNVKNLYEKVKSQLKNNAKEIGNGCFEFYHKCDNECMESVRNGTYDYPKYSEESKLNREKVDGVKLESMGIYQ

B1: anti-HA antibody C179 (antibody, V domains shown)
VH: EVKLVESGGGLVQPGGSLRLSCGTSGFTLTDDYMTWVRQPPGKALEWLGFIRDRANGYTTEYSASVKGRFTISRDNSQSIVYLQMNTLRVEDSATYYCARPKGYFPYAMDYWGQGTSVIVSS
VL: DIQMTQSPASQSASLGESVTITCLASQTIGTWLAWYQQKPGKSPQLLIYAATSLADGVPSRFSGSGSGTKFSFKISSLQAEDFVSYYCQQLYSTPWTFGGGTRLEIKR
On to B1, for which the Kd was found to be 0.0184 µM.
